Measured values taken from article PMC12074421, “Development and Characterization of pFluor50, a Fluorogenic-Based Kinetic Assay System for High-Throughput Inhibition Screening and Characterization of Time-Dependent Inhibition and Inhibition Type for Six Human CYPs” (Molecules, 2025).

Key:
Type in all cases: in vitro ADME, human
Conditions in all cases: pH 7.4
[1] = substrate: CCOc1ccc2nc3ccc(=O)cc-3oc2c1; assay: pFluor50 Michaelis–Menten kinetics, CYP2D6 with Eres
Protocol: (§1) In general, the protocol for determination of the Michaelis–Menten kinetic parameters (KM and Vmax) involved addition of the appropriate master mix to phosphate buffer followed by addition of the appropriate amount of enzyme to the mix. The master mix was determined for each specific CPY450 based on empirical methods involving each reagent to obtain a linear range of enzyme activity. A total of 30 µL of this enzyme mix was then added to each well of the 384-well plate. Next, initial background readings were taken for 5 min, after which the appropriate amount of substrate was dispensed into each well using the onboard reagent dispenser of the plate reader. All plates contained one blank well without enzyme (only master mix) for each substrate concentration. […] Table 1 provides the formulation of the master mix for each CYP, the kinetic read time with substrate, the read time interval, the concentration range of the substrate used for the Michaelis–Menten kinetics, the Ex and Em wavelengths, and the concentration of substrate for inhibition/activation screening. Table S1 details the specific parameters used for the plate reader for each CYP–substrate pair.
For determining the Michaelis–Menten kinetic parameters (KM and Vmax) for each CYP–substrate pair, kinetic studies were performed in which a range of different concentrations of the substrate were used. Table 1 details the formulations for the master mix, CYPexpress^TM concentrations, and concentration ranges of each specific substrate. For each CYP–substrate pair, plate reader parameters were set up as described in Table S1. The protocol used for Michaelis–Menten kinetics was similar for all the CYPs. Briefly, the working solution was prepared for each substrate and then primed into one of the dispensers on the plate reader. The other dispenser was primed with the buffer solution. 1.5 mL of phosphate buffer solution (pH 7.4) was used to prepare the master mix with the appropriate concentration of each reagent as specified in Table 1 (NADPH, NADP+, G6P, G6PDH, and/or MgCl2). The amount of CYPexpress reagent in units/(mg/mL) was determined for each enzyme as new lots may have slightly different activities, and the activity of the reagent may change over time. The appropriate mass of each CYPexpress^TM reagent needed to obtain the required units was measured using an analytical balance and was transferred to the master mix solution. This solution was mixed, and 30 µL of the solution was added to each well using a multichannel pipette. […] The plate was then transferred to the plate reader and readings were taken at the time intervals, for the appropriate length of time, and at the appropriate wavelengths as specified in Table 1.
Calibration curves were constructed using the determined plate reader settings (Figure S3) and concentrations of the products formed to allow for the calculation of product formation rates based on the observed fluorescence. For these calculations, we presumed that the total increase in observed fluorescence over time was due only to product formation. Calibration curves were generated with 6 different concentrations of the products (fluorescein and resorufin), which spanned the relative fluorescence units (RFU) observed during the kinetic experiments. […] Therefore, the exact rate of formation could not be determined, and the Vmax for CYP3A4 cleavage of dibenzyl fluorescein has been reported as the rate of change in relative fluorescence units (RFUs) per minute.

[2] = substrate: CCOc1ccc2nc3ccc(=O)cc-3oc2c1; assay: pFluor50 Michaelis–Menten kinetics, CYP1A2 with Eres
Protocol: as §1
For determining the Michaelis–Menten kinetic parameters (KM and Vmax) for each CYP–substrate pair, kinetic studies were performed in which a range of different concentrations of the substrate were used. Table 1 details the formulations for the master mix, CYPexpress^TM concentrations, and concentration ranges of each specific substrate. For each CYP–substrate pair, plate reader parameters were set up as described in Table S1. The protocol used for Michaelis–Menten kinetics was similar for all the CYPs. Briefly, the working solution was prepared for each substrate and then primed into one of the dispensers on the plate reader. The other dispenser was primed with the buffer solution. 1.5 mL of phosphate buffer solution (pH 7.4) was used to prepare the master mix with the appropriate concentration of each reagent as specified in Table 1 (NADPH, NADP+, G6P, G6PDH, and/or MgCl2). The amount of CYPexpress reagent in units/(mg/mL) was determined for each enzyme as new lots may have slightly different activities, and the activity of the reagent may change over time. The appropriate mass of each CYPexpress^TM reagent needed to obtain the required units was measured using an analytical balance and was transferred to the master mix solution. This solution was mixed, and 30 µL of the solution was added to each well using a multichannel pipette. In each case, a blank control well was also included, as described in Figure S1. The plate was then transferred to the plate reader and readings were taken at the time intervals, for the appropriate length of time, and at the appropriate wavelengths as specified in Table 1.
Calibration curves were constructed using the determined plate reader settings (Figure S3) and concentrations of the products formed to allow for the calculation of product formation rates based on the observed fluorescence. For these calculations, we presumed that the total increase in observed fluorescence over time was due only to product formation. Calibration curves were generated with 6 different concentrations of the products (fluorescein and resorufin), which spanned the relative fluorescence units (RFU) observed during the kinetic experiments. This allowed for the calculation of product concentrations from the observed RFU, enabling the calculation of the product formation rates. Unfortunately, fluorescein benzyl ester (the product formed from the metabolism of dibenzyl fluorescein) is not commercially available. Therefore, the exact rate of formation could not be determined, and the Vmax for CYP3A4 cleavage of dibenzyl fluorescein has been reported as the rate of change in relative fluorescence units (RFUs) per minute.

[3] = substrate: CCOc1ccc2nc3ccc(=O)cc-3oc2c1; assay: pFluor50 Michaelis–Menten kinetics, CYP2C9 with Eres
Protocol: as §1
For determining the Michaelis–Menten kinetic parameters (KM and Vmax) for each CYP–substrate pair, kinetic studies were performed in which a range of different concentrations of the substrate were used. Table 1 details the formulations for the master mix, CYPexpress^TM concentrations, and concentration ranges of each specific substrate. For each CYP–substrate pair, plate reader parameters were set up as described in Table S1. […] Briefly, the working solution was prepared for each substrate and then primed into one of the dispensers on the plate reader. […] The amount of CYPexpress reagent in units/(mg/mL) was determined for each enzyme as new lots may have slightly different activities, and the activity of the reagent may change over time. The appropriate mass of each CYPexpress^TM reagent needed to obtain the required units was measured using an analytical balance and was transferred to the master mix solution. […]

[4] = other: CYP2D6 1 mg/mL, three biological replicates
[5] = other: CYP1A2 1 mg/mL, three biological replicates
[6] = other: CYP1A2, biological repeat 1
[7] = other: CYP1A2, biological repeat 2
[8] = other: CYP1A2, biological repeat 3

B1: CYP2D6 (Homo sapiens) (protein)
chain: MGLEALVPLAVIVAIFLLLVDLMHRRQRWAARYPPGPLPLPGLGNLLHVDFQNTPYCFDQLRRRFGDVFSLQLAWTPVVVLNGLAAVREALVTHGEDTADRPPVPITQILGFGPRSQGVFLARYGPAWREQRRFSVSTLRNLGLGKKSLEQWVTEEAACLCAAFANHSGRPFRPNGLLDKAVSNVIASLTCGRRFEYDDPRFLRLLDLAQEGLKEESGFLREVLNAVPVLLHIPALAGKVLRFQKAFLTQLDELLTEHRMTWDPAQPPRDLTEAFLAEMEKAKGNPESSFNDENLRIVVADLFSAGMVTTSTTLAWGLLLMILHPDVQRRVQQEIDDVIGQVRRPEMGDQAHMPYTTAVIHEVQRFGDIVPLGVTHMTSRDIEVQGFRIPKGTTLITNLSSVLKDEAVWEKPFRFHPEHFLDAQGHFVKPEAFLPFSAGRRACLGEPLARMELFLFFTSLLQHFSFSVPTGQPRPSHHGVFAFLVSPSPYELCAVPR
notes: purchased Sigma Aldrich (CYPexpress, Oxford Biomedical Research, Inc.) MTOXCE2D6
B1 showed a Km [1, 4] of 1.63 ± 0.7 µM, a Vmax [1, 4] of 0.00093 µmol/min and a Km ([1]; other: CYP2D6, biological repeat 1) of 2.43 µM. It also gave a Km ([1]; other: CYP2D6, biological repeat 2) of 0.89 µM and a Km ([1]; other: CYP2D6, biological repeat 3) of 1.57 µM.

B2: CYP1A2 (Homo sapiens) (protein)
chain: ALSQSVPFSATELLLASAIFCLVFWVLKGLRPRVPKGLKSPPEPWGWPLLGHVLTLGKNPHLALSRMSQRYGDVLQIRIGSTPVLVLSRLDTIRQALVRQGDDFKGRPDLYTSTLITDGQSLTFSTDSGPVWAARRRLAQNALNTFSIASDPASSSSCYLEEHVSKEAKALISRLQELMAGPGHFDPYNQVVVSVANVIGAMCFGQHFPESSDEMLSLVKNTHEFVETASSGNPLDFFPILRYLPNPALQRFKAFNQRFLWFLQKTVQEHYQDFDKNSVRDITGALFKHSKKGPRASGNLIPQEKIVNLVNDIFGAGFDTVTTAISWSLMYLVTKPEIQRKIQKELDTVIGRERRPRLSDRPQLPYLEAFILETFRHSSFLPFTIPHSTTRDTTLNGFYIPKKCCVFVNQWQVNHDPELWEDPSEFRPERFLTADGTAINKPLSEKMMLFGMGKRRCIGEVLAKWEIFLFLAILLQQLEFSVPPGVKVDLTPIYGLTMKHARCEHVQARLRFSIN
notes: purchased Sigma Aldrich (CYPexpress, Oxford Biomedical Research, Inc.) MTOXCE1A2
Work on B2 yielded a Km [2, 5] of 0.35 ± 0.1 µM, a Vmax [2, 5] of 1.61 nmol/min and a Km [2, 6] of 0.33 µM. The Vmax [2, 6] was 1.64 nmol/min, the Km [2, 7] was 0.225 µM and the Vmax [2, 7] was 1.38 nmol/min. The Km [2, 8] was 0.47 µM and the Vmax [2, 8] was 1.82 nmol/min.

B3: CYP2C9 (Homo sapiens) (protein)
chain: MDSLVVLVLCLSCLLLLSLWRQSSGRGKLPPGPTPLPVIGNILQIGIKDISKSLTNLSKVYGPVFTLYFGLKPIVVLHGYEAVKEALIDLGEEFSGRGIFPLAERANRGFGIVFSNGKKWKEIRRFSLMTLRNFGMGKRSIEDRVQEEARCLVEELRKTKASPCDPTFILGCAPCNVICSIIFHKRFDYKDQQFLNLMEKLNENIKILSSPWIQICNNFSPIIDYFPGTHNKLLKNVAFMKSYILEKVKEHQESMDMNNPQDFIDCFLMKMEKEKHNQPSEFTIESLENTAVDLFGAGTETTSTTLRYALLLLLKHPEVTAKVQEEIERVIGRNRSPCMQDRSHMPYTDAVVHEVQRYIDLLPTSLPHAVTCDIKFRNYLIPKGTTILISLTSVLHDNKEFPNPEMFDPHHFLDEGGNFKKSKYFMPFSAGKRICVGEALAGMELFLFLTSILQNFNLKSLVDPKNLDTTPVVNGFASVPPFYQLCFIPV
notes: purchased Sigma Aldrich (CYPexpress, Oxford Biomedical Research, Inc.) MTOXCE2C9
B3 gave a Km ([3]; other: CYP2C9, biological repeat 1) of 0.46 µM, a Km ([3]; other: CYP2C9, biological repeat 2) of 0.52 µM and a Km ([3]; other: CYP2C9, biological repeat 3) of 0.39 µM.
